Test results reported in article PMC8791637.
Values belong to the substance of their own block, whether it stands above or below them.

Assays:
Focal adhesion kinase [1] = target: Focal adhesion kinase (UniProt Q05397)
phosphorylated Nephrin = phosphorylated Nephrin (UniProt O60500)
Nck = Nck (UniProt P16333)
N-WASP = N-WASP (UniProt O00401)
Focal adhesion kinase [2] = target: Focal adhesion kinase (UniProt Q05397); remark: listed apart in the source
His6-sumo-kindlin = His6-sumo-kindlin (UniProt Q96AC1)
Sequence of His6-sumo-kindlin (UniProt Q96AC1) (Q96AC1 whole entry): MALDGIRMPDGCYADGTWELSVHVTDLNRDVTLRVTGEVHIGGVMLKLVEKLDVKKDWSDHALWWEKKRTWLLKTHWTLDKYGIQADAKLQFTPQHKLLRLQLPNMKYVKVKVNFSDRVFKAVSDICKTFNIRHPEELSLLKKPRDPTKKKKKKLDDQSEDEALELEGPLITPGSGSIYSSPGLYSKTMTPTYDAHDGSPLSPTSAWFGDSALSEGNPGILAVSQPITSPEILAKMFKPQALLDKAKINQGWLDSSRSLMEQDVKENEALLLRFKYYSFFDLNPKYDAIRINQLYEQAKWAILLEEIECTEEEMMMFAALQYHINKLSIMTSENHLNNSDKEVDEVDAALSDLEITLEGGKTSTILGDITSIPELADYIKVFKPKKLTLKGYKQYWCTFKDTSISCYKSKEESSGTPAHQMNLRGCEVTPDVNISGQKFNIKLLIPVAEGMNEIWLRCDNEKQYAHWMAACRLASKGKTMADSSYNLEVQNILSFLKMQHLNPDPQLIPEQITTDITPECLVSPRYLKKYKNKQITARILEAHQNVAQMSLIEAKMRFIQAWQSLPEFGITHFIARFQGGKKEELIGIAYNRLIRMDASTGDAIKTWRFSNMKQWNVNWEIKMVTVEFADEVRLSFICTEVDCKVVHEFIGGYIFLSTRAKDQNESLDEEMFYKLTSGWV

Sequence of His6-sumo-kindlin (from UniProt Q96AC1 1-680) (natural protein) (Q96AC1 whole entry): as above
Sequence of N-WASP (O00401 whole entry): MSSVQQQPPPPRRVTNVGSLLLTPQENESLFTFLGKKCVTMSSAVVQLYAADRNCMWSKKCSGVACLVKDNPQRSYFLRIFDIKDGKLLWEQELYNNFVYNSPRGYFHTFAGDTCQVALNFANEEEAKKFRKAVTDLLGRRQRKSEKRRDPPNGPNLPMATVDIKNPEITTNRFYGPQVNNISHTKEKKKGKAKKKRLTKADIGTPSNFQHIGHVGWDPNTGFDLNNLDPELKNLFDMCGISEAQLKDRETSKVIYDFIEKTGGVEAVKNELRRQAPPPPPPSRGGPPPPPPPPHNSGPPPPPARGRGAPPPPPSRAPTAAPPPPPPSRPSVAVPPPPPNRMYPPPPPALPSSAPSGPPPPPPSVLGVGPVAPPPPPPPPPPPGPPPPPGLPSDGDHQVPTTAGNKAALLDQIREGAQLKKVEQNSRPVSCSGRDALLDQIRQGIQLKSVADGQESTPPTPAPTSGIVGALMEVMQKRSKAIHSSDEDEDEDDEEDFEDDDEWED
Sequence of Focal adhesion kinase (from UniProt Q05397 1-1052) (enzyme) (Q05397 whole entry): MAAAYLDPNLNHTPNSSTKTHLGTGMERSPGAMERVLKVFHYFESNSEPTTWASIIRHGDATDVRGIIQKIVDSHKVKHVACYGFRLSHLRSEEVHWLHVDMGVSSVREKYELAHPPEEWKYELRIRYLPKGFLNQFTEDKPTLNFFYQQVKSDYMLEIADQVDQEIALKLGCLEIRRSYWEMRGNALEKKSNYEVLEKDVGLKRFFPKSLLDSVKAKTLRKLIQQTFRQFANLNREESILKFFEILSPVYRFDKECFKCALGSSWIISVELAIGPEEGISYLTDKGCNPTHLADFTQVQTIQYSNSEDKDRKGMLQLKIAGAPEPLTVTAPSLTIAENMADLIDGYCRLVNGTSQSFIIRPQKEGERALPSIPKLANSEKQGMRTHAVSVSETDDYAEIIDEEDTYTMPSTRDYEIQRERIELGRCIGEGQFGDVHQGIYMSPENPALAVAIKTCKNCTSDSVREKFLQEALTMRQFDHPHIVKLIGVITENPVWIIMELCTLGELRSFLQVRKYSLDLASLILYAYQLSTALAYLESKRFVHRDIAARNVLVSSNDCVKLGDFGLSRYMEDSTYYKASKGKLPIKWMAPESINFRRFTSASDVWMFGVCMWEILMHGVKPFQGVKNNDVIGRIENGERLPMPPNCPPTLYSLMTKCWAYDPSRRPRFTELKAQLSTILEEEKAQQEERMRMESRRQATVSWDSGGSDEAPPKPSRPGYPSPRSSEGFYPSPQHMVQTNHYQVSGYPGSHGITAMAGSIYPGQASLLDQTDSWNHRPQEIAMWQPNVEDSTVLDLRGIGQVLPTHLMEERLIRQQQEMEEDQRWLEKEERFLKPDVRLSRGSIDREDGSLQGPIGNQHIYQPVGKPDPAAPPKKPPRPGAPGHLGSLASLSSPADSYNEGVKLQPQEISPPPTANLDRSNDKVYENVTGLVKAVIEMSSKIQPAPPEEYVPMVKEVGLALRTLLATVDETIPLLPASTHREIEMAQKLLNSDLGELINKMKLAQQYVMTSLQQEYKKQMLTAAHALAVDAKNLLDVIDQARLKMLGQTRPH
Sequence of Focal adhesion kinase (UniProt Q05397) (Q05397 whole entry): as above
Sequence of phosphorylated Nephrin (O60500 23-1241): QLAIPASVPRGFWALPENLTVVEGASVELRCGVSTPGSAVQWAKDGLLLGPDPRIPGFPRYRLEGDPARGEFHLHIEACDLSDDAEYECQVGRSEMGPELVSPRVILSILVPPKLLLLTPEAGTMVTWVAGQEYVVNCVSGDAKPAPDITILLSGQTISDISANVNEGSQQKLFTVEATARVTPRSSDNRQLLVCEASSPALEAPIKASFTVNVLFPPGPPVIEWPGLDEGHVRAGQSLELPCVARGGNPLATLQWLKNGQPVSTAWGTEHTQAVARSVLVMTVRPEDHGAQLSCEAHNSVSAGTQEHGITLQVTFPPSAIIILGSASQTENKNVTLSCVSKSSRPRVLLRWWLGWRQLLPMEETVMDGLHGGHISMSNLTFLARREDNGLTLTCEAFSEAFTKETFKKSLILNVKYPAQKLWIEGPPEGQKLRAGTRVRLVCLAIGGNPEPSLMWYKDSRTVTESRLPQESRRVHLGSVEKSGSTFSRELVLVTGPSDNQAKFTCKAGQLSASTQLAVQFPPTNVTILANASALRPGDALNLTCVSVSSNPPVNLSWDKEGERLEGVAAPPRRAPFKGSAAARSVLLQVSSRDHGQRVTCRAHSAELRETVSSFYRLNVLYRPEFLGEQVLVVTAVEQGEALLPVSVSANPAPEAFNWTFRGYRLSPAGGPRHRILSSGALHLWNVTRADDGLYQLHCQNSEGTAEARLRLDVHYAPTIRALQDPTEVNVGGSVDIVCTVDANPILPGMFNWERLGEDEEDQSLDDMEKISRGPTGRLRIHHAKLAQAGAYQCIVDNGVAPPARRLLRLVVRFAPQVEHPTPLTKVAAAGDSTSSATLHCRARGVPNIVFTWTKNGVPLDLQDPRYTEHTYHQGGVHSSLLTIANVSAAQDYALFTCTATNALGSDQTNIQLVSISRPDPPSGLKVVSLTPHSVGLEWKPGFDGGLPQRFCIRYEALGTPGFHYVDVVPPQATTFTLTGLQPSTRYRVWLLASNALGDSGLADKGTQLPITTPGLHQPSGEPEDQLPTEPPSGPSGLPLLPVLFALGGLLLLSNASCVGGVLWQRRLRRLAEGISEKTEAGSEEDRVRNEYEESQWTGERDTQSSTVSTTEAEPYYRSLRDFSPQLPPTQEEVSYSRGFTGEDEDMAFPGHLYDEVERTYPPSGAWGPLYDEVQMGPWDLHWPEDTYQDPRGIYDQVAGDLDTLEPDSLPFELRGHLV
Sequence of β1 integrin cytoplasmic tail-GFP (P05556 752-798): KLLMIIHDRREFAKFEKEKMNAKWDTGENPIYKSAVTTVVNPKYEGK
Sequence of Paxillin (P49023 whole entry): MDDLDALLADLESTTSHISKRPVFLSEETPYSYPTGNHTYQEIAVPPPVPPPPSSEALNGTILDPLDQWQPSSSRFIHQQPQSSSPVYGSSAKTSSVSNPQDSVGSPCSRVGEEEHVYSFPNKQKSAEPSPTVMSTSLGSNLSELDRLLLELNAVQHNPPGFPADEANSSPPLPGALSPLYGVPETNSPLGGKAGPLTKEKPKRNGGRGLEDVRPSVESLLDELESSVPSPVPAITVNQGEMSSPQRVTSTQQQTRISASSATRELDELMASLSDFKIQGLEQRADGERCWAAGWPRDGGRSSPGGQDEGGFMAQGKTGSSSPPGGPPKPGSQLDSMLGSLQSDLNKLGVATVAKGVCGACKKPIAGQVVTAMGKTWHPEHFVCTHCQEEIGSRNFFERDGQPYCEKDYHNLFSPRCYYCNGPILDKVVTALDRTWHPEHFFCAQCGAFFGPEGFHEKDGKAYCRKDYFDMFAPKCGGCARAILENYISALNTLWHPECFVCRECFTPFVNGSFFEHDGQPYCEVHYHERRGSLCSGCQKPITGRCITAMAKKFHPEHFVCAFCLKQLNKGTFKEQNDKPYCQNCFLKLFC

- solution turbidity (absorbance at 350 nm) with increasing concentrations of FAK; concentration from which turbidity rises (Focal adhesion kinase [1]): 100 nM
Substance: Focal adhesion kinase (from UniProt Q05397 1-1052) (enzyme)

- kindlin partition coefficient (PC) in droplets of 5 uM each phosphorylated Nephrin, Nck and N-WASP with 1 uM kindlin (10% Alexa546), lacking pCas (phosphorylated Nephrin): 1
- kindlin partition coefficient (PC) in droplets of 5 uM each phosphorylated Nephrin, Nck and N-WASP with 1 uM kindlin (10% Alexa546), lacking pCas (Nck): 1
- kindlin partition coefficient (PC) in droplets of 5 uM each phosphorylated Nephrin, Nck and N-WASP with 1 uM kindlin (10% Alexa546), lacking pCas (N-WASP): 1
Substance: His6-sumo-kindlin (from UniProt Q96AC1 1-680) (natural protein)

- FAK enrichment (partitioning) in droplets, 1 uM FAK with 1 uM paxillin against 1 uM FAK alone (Focal adhesion kinase [2]): 2 fold
Substance: Paxillin (from UniProt P49023 1-591) (natural protein)

- integrin-GFP partition coefficient (PC) in droplets of 1 uM each pCas, Nck, N-WASP, FAK, paxillin and β1 integrin tail with 1 uM kindlin (PC = 1.2 without kindlin) (His6-sumo-kindlin): 3
Substance: β1 integrin cytoplasmic tail-GFP (from UniProt P05556 752-798) (domain or fragment)
